The chains are these.
B3: Human GCNF (NR6A1) ligand binding domain (LBD), residues 248-480, hexahistidine-tagged (receptor, UniProt Q15406 248-480, looked up)
chain: PQSYSLIHQLLSAEDLEPLGTPMLIEDGYAVTQAELFALLCRLADELLFRQIAWIKKLPFFCELSIKDYTCLLSSTWQELILLSSLTVYSKQIFGELADVTAKYSPSDEELHRFSDEGMEVIERLIYLYHKFHQLKVSNEEYACMKAINFLNQDIRGLTSASQLEQLNKRYWYICQDFTEYKYTHQPNRFPDLMMCLPEIRYIAGKMVNVPLEQLPLLFKVVLHSCKTSVGKE
notes: range 248-480; Expressed in E. coli as a 263-amino acid hexahistidine-tagged construct (30.4 kDa); about 60 kDa homodimer by analytical size exclusion; The tag is placed first as a guess; also called GCNF LBD; wild-type GCNF; not shown: 3C protease-cleavable hexahistidine tag from pET45b(+)

In series [1] the target is B3. Kind of series: fluorescence polarization, 500 nM fluorescein-tagged peptide, GCNF LBD titrated. The procedure:
(§1) FP Assay. Fluorescence polarization (FP) assays were performed in triplicate on a 384-well Corning 3820 black opaque plate using a Biotek Synergy Neo2 HTS multimode microplate reader at excitation and emission wavelengths of 485 nm and 538 nm, respectively. Data were analyzed and plotted using GraphPad Prism as mean±SEM.
For the corepressor peptide FP binding assay, 70.0, 35.0, 17.5, 8.8, 4.4, 2.2, 1.1, 0.55, 0.27, 0.14, and 0 μM of GCNF LBD was mixed with 500 nM N-terminus fluorescein-tagged corepressor peptides NCoR ID1 ([…] (SEQ ID NO: 1)), NCoR ID2 ([…] (SEQ ID NO: 2)), SMRT ID1 ([…] (SEQ ID NO: 3)), or SMRT ID2 ([…] (SEQ ID NO: 4)) (ThermoFisher Scientific) in assay buffer containing 50 mM HEPES (pH 7.5), 50 mM KCl, 5 mM TCEP, 0.5 mM EDTA and 0.005% Tween20. The relative polarization was plotted against the GCNF LBD concentration and fitted via nonlinear regression (one site specific binding with Hill slope) to extract KD.

For series [2], the target named is B3. The experiment in a line: fluorescence polarization, 500 nM fluorescein-tagged peptide, GCNF LBD titrated 0-70 µM. The procedure: GCNF protein binds directly to DR0 sites or direct repeats of AGGTCA with no spacing between half sites in the promoters of both the Oct4 and Nanog genes and is thought to repress target genes via interactions with corepressors SMRT and NCoR (Furhmann et al., 2001; Gu et al., 2005; Yan et al., 2000). To determine whether ligand binding can affect the interaction between GCNF and its associated corepressor proteins SMRT and NCoR, a fluorescence polarization assay was performed to monitor the ability of ligands to affect corepressor peptide recruitment to the GCNF LBD. Since GCNF LBD was predicted to interact with transcriptional corepressors NCoR and SMRT via its N-terminal portion (Furhmann et al., 2001; Yan et al., 1997; Yan et al., 2000), an FP assay was initially performed consisting of different fluorescein-tagged peptides derived from these corepressors. […] Meanwhile, titrating 34, but not ligand 80, increased the recruitment of SMRT ID2, the tighter binding corepressor peptide (FIG. 4C). […]
as §1

Series [3] concerns the molecule itself. The experiment in a line: analytical size exclusion chromatography with SDS-PAGE of the pooled fractions.

Ends that are not written are not given here. fluorescein = fluorescein tag at the N-terminus

B1: SMRT ID1 corepressor peptide, N-terminus fluorescein-tagged (peptide)
peptide: fluorescein-GHQRVVTLAQHISEVITQDYTRH
notes: Bought from ThermoFisher Scientific; 500 nM in the FP assay; also called SMRT box 1
B1: the binding result in series [1] is recorded as “no binding (tested: GCNF LBD up to 70.0 µM)”.

B2: NCoR ID1 corepressor peptide, N-terminus fluorescein-tagged (peptide)
peptide: fluorescein-RTHLITLADHICQIITQDFARN
notes: Bought from ThermoFisher Scientific; 500 nM in the FP assay; also called NCoR box 1
As for B2, the Kd in series [2] turned out to be 32 µM.

In the case of B3, the binding result in series [3] is on record as “binds”.

B4: NCoR ID2 corepressor peptide, N-terminus fluorescein-tagged (peptide)
peptide: fluorescein-DPASNLGLEDIIRKALMGSFDDK
notes: Bought from ThermoFisher Scientific; 500 nM in the FP assay; also called NCoR box 2
Regarding B4, the binding result in series [1] is on record as “no binding (tested: GCNF LBD up to 70.0 µM)”.
